Results taken from the supplement of paper PMC10567573.

B1: VENTX (parent)
chain: VFQHHQYLSPLERKRLAREMQLSE

Variants of: B1
Experiment: protein stability index of a GFP-peptide fusion (GPS, HEK-293T) (PSI 1-6); higher = more stable
Conditions: c terminus: a fixed tail appended
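Note: lentivirally expressed fusions sorted by FACS into six bins by GFP to DsRed ratio, PSI derived from sequencing read proportions per bin multiplied by bin number.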

Compared with VFQHQQYLSPLERKRLAREMQLSE [H5Q], VFQHHQYLSPLFRKRLAREMQLSE [E12F] is lower in protein stability index: 3.01 for the first, 2.58 for the second.

Compared with VFQHHQYLSPLCRKRLAREMQLSE [E12C], VFQHHQYLSPLMRKRLAREMQLSE [E12M] is higher in protein stability index: 1.98 for the first, 2.74 for the second.

Compared with VFQHHQYLSPLHRKRLAREMQLSE [E12H], VFQHHQYLSPLGRKRLAREMQLSE [E12G] is lower in protein stability index: 2.21 for the first, 2.07 for the second.

Going from VFQHHQYLSPLVRKRLAREMQLSE [E12V] to VFQHHQYLSPLPRKRLAREMQLSE [E12P], the protein stability index rises from 2.74 to 2.99.

Going from VFQHHQYLSPLKRKRLAREMQLSE [E12K] to VFQHHQYLSPLLRKRLAREMQLSE [E12L], the protein stability index rises from 1.82 to 2.13.

Compared with VFQHHQYLSPLWRKRLAREMQLSE [E12W], VFQHHQYLSPLRRKRLAREMQLSE [E12R] is higher in protein stability index: 1.8 for the first, 2.45 for the second.

Compared with VFQHHQYLSPLSRKRLAREMQLSE [E12S], VFQHHQYLSPLDRKRLAREMQLSE [E12D] is lower in protein stability index: 2.74 for the first, 2.39 for the second.

Compared with VFQHHQYLSPLYRKRLAREMQLSE [E12Y], VFQHHQYLSPLNRKRLAREMQLSE [E12N] is higher in protein stability index: 2.19 for the first, 2.56 for the second.

Going from VFQHHQYLSPLIRKRLAREMQLSE [E12I] to VFQHHQYLSPLTRKRLAREMQLSE [E12T], the protein stability index falls from 2.66 to 2.08.

Compared with VFQHHQYLSPLQRKRLAREMQLSE [E12Q], VFQHHQYLSPLARKRLAREMQLSE [E12A] is lower in protein stability index: 2.33 for the first, 1.96 for the second.

Going from VFQHHQYISPLERKRLAREMQLSE [L8I] to VFQHHQYKSPLERKRLAREMQLSE [L8K], the protein stability index rises from 3.02 to 3.6.

Compared with VFQHHQYASPLERKRLAREMQLSE [L8A], VFQHHQYVSPLERKRLAREMQLSE [L8V] is lower in protein stability index: 2.65 for the first, 2.41 for the second.

First: VFQHHQYFSPLERKRLAREMQLSE [L8F]
Second: VFQHHQYTSPLERKRLAREMQLSE [L8T]
The protein stability index of the first is higher: 2.62 for the first, 2.4 for the second.

First: VFQHHQYHSPLERKRLAREMQLSE [L8H]
Second: VFQHHQYPSPLERKRLAREMQLSE [L8P]
The protein stability index of the first is higher: 2.75 for the first, 2.52 for the second.

Going from VFQHHQYRSPLERKRLAREMQLSE [L8R] to VFQHHQYQSPLERKRLAREMQLSE [L8Q], the protein stability index rises from 2.25 to 2.89.

Compared with VFQHHQYNSPLERKRLAREMQLSE [L8N], VFQHHQYESPLERKRLAREMQLSE [L8E] is higher in protein stability index: 2.72 for the first, 3.66 for the second.

Going from VFQHHQYSSPLERKRLAREMQLSE [L8S] to VFQHHQYWSPLERKRLAREMQLSE [L8W], the protein stability index falls from 2.09 to 1.83.

First: VFQHHQYDSPLERKRLAREMQLSE [L8D]
Second: VFQHHQYMSPLERKRLAREMQLSE [L8M]
The protein stability index of the first is higher: 3.31 for the first, 2.55 for the second.

First: VFQHHQYGSPLERKRLAREMQLSE [L8G]
Second: VFQHHQYCSPLERKRLAREMQLSE [L8C]
The protein stability index of the first is higher: 2.42 for the first, 2.22 for the second.

Compared with VFQHHQYYSPLERKRLAREMQLSE [L8Y], VFKHHQYLSPLERKRLAREMQLSE [Q3K] is higher in protein stability index: 2.32 for the first, 3 for the second.

Going from VFRHHQYLSPLERKRLAREMQLSE [Q3R] to VFVHHQYLSPLERKRLAREMQLSE [Q3V], the protein stability index rises from 2.17 to 2.78.

Compared with VFYHHQYLSPLERKRLAREMQLSE [Q3Y], VFNHHQYLSPLERKRLAREMQLSE [Q3N] is higher in protein stability index: 2.56 for the first, 3.05 for the second.

First: VFIHHQYLSPLERKRLAREMQLSE [Q3I]
Second: VFFHHQYLSPLERKRLAREMQLSE [Q3F]
The protein stability index of the first is higher: 2.07 for the first, 1.66 for the second.

Compared with VFCHHQYLSPLERKRLAREMQLSE [Q3C], VFDHHQYLSPLERKRLAREMQLSE [Q3D] is higher in protein stability index: 1.85 for the first, 4.04 for the second.

Going from VFGHHQYLSPLERKRLAREMQLSE [Q3G] to VFPHHQYLSPLERKRLAREMQLSE [Q3P], the protein stability index rises from 2.82 to 2.98.

Going from VFMHHQYLSPLERKRLAREMQLSE [Q3M] to VFTHHQYLSPLERKRLAREMQLSE [Q3T], the protein stability index rises from 2.27 to 2.96.

Compared with VFEHHQYLSPLERKRLAREMQLSE [Q3E], VFWHHQYLSPLERKRLAREMQLSE [Q3W] is lower in protein stability index: 3.84 for the first, 1.79 for the second.

Going from VFLHHQYLSPLERKRLAREMQLSE [Q3L] to VFHHHQYLSPLERKRLAREMQLSE [Q3H], the protein stability index rises from 1.29 to 2.11.

Going from VFSHHQYLSPLERKRLAREMQLSE [Q3S] to VFQHHQYLSPFERKRLAREMQLSE [L11F], the protein stability index falls from 3.81 to 2.42.

Compared with VFQHHQYLSPQERKRLAREMQLSE [L11Q], VFQHHQYLSPCERKRLAREMQLSE [L11C] is lower in protein stability index: 2.73 for the first, 2.4 for the second.

First: VFQHHQYLSPWERKRLAREMQLSE [L11W]
Second: VFQHHQYLSPHERKRLAREMQLSE [L11H]
The protein stability index of the first is higher: 2.84 for the first, 2.77 for the second.

Going from VFQHHQYLSPVERKRLAREMQLSE [L11V] to VFQHHQYLSPGERKRLAREMQLSE [L11G], the protein stability index falls from 2.53 to 1.95.

Compared with VFQHHQYLSPKERKRLAREMQLSE [L11K], VFQHHQYLSPEERKRLAREMQLSE [L11E] is higher in protein stability index: 3.03 for the first, 3.41 for the second.

Compared with VFQHHQYLSPNERKRLAREMQLSE [L11N], VFQHHQYLSPMERKRLAREMQLSE [L11M] is lower in protein stability index: 3.2 for the first, 2.65 for the second.

First: VFQHHQYLSPYERKRLAREMQLSE [L11Y]
Second: VFQHHQYLSPDERKRLAREMQLSE [L11D]
The protein stability index of the first is lower: 2.66 for the first, 2.97 for the second.

Compared with VFQHHQYLSPSERKRLAREMQLSE [L11S], VFQHHQYLSPRERKRLAREMQLSE [L11R] is lower in protein stability index: 2.64 for the first, 2.31 for the second.

Going from VFQHHQYLSPPERKRLAREMQLSE [L11P] to VFQHHQYLSPTERKRLAREMQLSE [L11T], the protein stability index rises from 2.1 to 2.93.

Going from VFQHHQYLSPAERKRLAREMQLSE [L11A] to VFQHHQYLSPIERKRLAREMQLSE [L11I], the protein stability index falls from 3 to 2.4.

Compared with VFQHHQYLSTLERKRLAREMQLSE [P10T], VFQHHQYLSALERKRLAREMQLSE [P10A] is higher in protein stability index: 1.86 for the first, 2.62 for the second.

Compared with VFQHHQYLSMLERKRLAREMQLSE [P10M], VFQHHQYLSLLERKRLAREMQLSE [P10L] is higher in protein stability index: 2.23 for the first, 2.67 for the second.

Compared with VFQHHQYLSGLERKRLAREMQLSE [P10G], VFQHHQYLSWLERKRLAREMQLSE [P10W] is lower in protein stability index: 2.23 for the first, 1.96 for the second.

First: VFQHHQYLSDLERKRLAREMQLSE [P10D]
Second: VFQHHQYLSSLERKRLAREMQLSE [P10S]
The protein stability index of the first is lower: 2.31 for the first, 2.89 for the second.

Compared with VFQHHQYLSKLERKRLAREMQLSE [P10K], VFQHHQYLSYLERKRLAREMQLSE [P10Y] is higher in protein stability index: 2.52 for the first, 2.54 for the second.

Compared with VFQHHQYLSVLERKRLAREMQLSE [P10V], VFQHHQYLSHLERKRLAREMQLSE [P10H] is higher in protein stability index: 2.63 for the first, 2.73 for the second.

Compared with VFQHHQYLSNLERKRLAREMQLSE [P10N], VFQHHQYLSILERKRLAREMQLSE [P10I] is lower in protein stability index: 2.82 for the first, 2.42 for the second.

First: VFQHHQYLSFLERKRLAREMQLSE [P10F]
Second: VFQHHQYLSQLERKRLAREMQLSE [P10Q]
The protein stability index of the first is lower: 1.91 for the first, 2.46 for the second.

Going from VFQHHQYLSELERKRLAREMQLSE [P10E] to VFQHHQYLSCLERKRLAREMQLSE [P10C], the protein stability index falls from 2.91 to 2.32.
